Consider 125 sequences from the supplement of paper PMC9112550, “Optimization of the antimicrobial peptide Bac7 by deep mutational scanning” (BMC Biology, 2022).

This data set has as its system Escherichia coli TOP10. In words: shrunken log2 fold change of peptide-encoding DNA abundance (4.5 h post-induction vs induction); higher = less antimicrobial activity (less host growth inhibition). The note with it: time post-induction: 4.5 h; library: site-saturation at positions 5, 18, 19, 20.
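Note: peptides expressed intracellularly from a pBAD plasmid library in pooled LB shake-flask culture, induced with 0.3% L-arabinose, DNA abundance read by NGS, three biological replicates, DESeq2 with apeglm shrinkage.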

As for RRIRNRPPRLPRPRPRPANCPRP, the “shrunken log2 fold change” value is -0.185.
The value for RRIRWRPPRLPRPRPRPAPWPRP was 0.319; that for RRIRSRPPRLPRPRPRPPMRPRP was 1.02; that for RRIRHRPPRLPRPRPRPGDHPRP was -0.00776.
Turning to RRIRWRPPRLPRPRPRPTSDPRP, the “shrunken log2 fold change” value was -0.0119.
Under RRIRIRPPRLPRPRPRPIRYPRP stands -0.125.
The value for RRIRKRPPRLPRPRPRPWRLPRP was -0.0807; that for RRIRCRPPRLPRPRPRPPDCPRP was 0.177; that for RRIRKRPPRLPRPRPRPPTYPRP was 0.0129.
The value for RRIRARPPRLPRPRPRPGDFPRP was 0.383; that for RRIRWRPPRLPRPRPRPRRYPRP was 0.18; that for RRIRERPPRLPRPRPRPEQNPRP was 0.139.
In the case of RRIRDRPPRLPRPRPRPFKEPRP, the “shrunken log2 fold change” value was found to be 0.0108.
With RRIRNRPPRLPRPRPRPPHYPRP, the “shrunken log2 fold change” value is -0.245.
Turning to RRIRRRPPRLPRPRPRPFMTPRP, the “shrunken log2 fold change” value came out at 0.0665.
Under RRIRARPPRLPRPRPRPAVAPRP stands 0.728; under RRIRHRPPRLPRPRPRPSRCPRP, -0.648.
The value for RRIRDRPPRLPRPRPRPVTSPRP was -0.2.
As to RRIRFRPPRLPRPRPRPNYNPRP, the “shrunken log2 fold change” value is -1.12.
The value for RRIRQRPPRLPRPRPRPNPIPRP was 0.0989; that for RRIRSRPPRLPRPRPRPTEVPRP was -0.125.
The value for RRIRNRPPRLPRPRPRPKTGPRP was -0.0778; that for RRIRIRPPRLPRPRPRPFITPRP was -0.626; that for RRIRDRPPRLPRPRPRPKQPPRP was -0.0112.
RRIRPRPPRLPRPRPRPCGKPRP: the “shrunken log2 fold change” value was determined as 0.0102.
For the sequence RRIRCRPPRLPRPRPRPIHIPRP, the “shrunken log2 fold change” value was -0.893.
Consider RRIRERPPRLPRPRPRPHRCPRP, for which the “shrunken log2 fold change” value was -0.0136.
For the sequence RRIRMRPPRLPRPRPRPGHPPRP, the “shrunken log2 fold change” value came out at 0.196.
For the sequence RRIRSRPPRLPRPRPRPNLFPRP, the “shrunken log2 fold change” value is -0.0477.
On to RRIRGRPPRLPRPRPRPGGVPRP, for which the “shrunken log2 fold change” value was determined as 1.06.
For RRIRIRPPRLPRPRPRPSTVPRP, the “shrunken log2 fold change” value is -0.566.
As to RRIRFRPPRLPRPRPRPKVNPRP, the “shrunken log2 fold change” value is -0.266.
Under RRIRYRPPRLPRPRPRPMLLPRP stands -0.871; under RRIRTRPPRLPRPRPRPKCDPRP, 0.118.
Under RRIRYRPPRLPRPRPRPWTLPRP stands -0.0151.
The value for RRIRARPPRLPRPRPRPMWPPRP was 0.527; that for RRIRLRPPRLPRPRPRPGGHPRP was 0.0643; that for RRIRTRPPRLPRPRPRPNTMPRP was -0.675.
For the sequence RRIRDRPPRLPRPRPRPGKFPRP, the “shrunken log2 fold change” value was -0.0736.
The value for RRIRPRPPRLPRPRPRPYKHPRP was -0.777; that for RRIRCRPPRLPRPRPRPGQAPRP was -0.0147.
Under RRIRIRPPRLPRPRPRPEYGPRP stands -0.0842.
As for RRIRFRPPRLPRPRPRPFEQPRP, the “shrunken log2 fold change” value was -0.311.
RRIRKRPPRLPRPRPRPGPCPRP: the “shrunken log2 fold change” value is 0.393.
Consider RRIRRRPPRLPRPRPRPDWAPRP, for which the “shrunken log2 fold change” value is -0.221.
For RRIRRRPPRLPRPRPRPVESPRP, the “shrunken log2 fold change” value is 0.126.
With RRIRCRPPRLPRPRPRPLMEPRP, the “shrunken log2 fold change” value is -0.0946.
The value for RRIRNRPPRLPRPRPRPKNHPRP was -0.19.
Consider RRIRARPPRLPRPRPRPEIDPRP, for which the “shrunken log2 fold change” value stood at 1.36.
The value for RRIRVRPPRLPRPRPRPPESPRP was 0.201.
With RRIRMRPPRLPRPRPRPVDIPRP, the “shrunken log2 fold change” value is -0.0631.
Consider RRIRVRPPRLPRPRPRPDSQPRP, for which the “shrunken log2 fold change” value is -0.116.
For RRIRIRPPRLPRPRPRPKEAPRP, the “shrunken log2 fold change” value worked out at 0.0518.
Regarding RRIRDRPPRLPRPRPRPPIEPRP, the “shrunken log2 fold change” value was -0.0618.
Regarding RRIRPRPPRLPRPRPRPPVSPRP, the “shrunken log2 fold change” value worked out at 0.0379.
For RRIRHRPPRLPRPRPRPEMCPRP, the “shrunken log2 fold change” value was -0.206.
Under RRIRRRPPRLPRPRPRPNKQPRP stands -0.00565; under RRIRTRPPRLPRPRPRPFENPRP, -0.0132; under RRIRGRPPRLPRPRPRPYNWPRP, -0.225.
Regarding RRIRCRPPRLPRPRPRPGVHPRP, the “shrunken log2 fold change” value was -0.108.
Regarding RRIRQRPPRLPRPRPRPECCPRP, the “shrunken log2 fold change” value was 0.267.
Turning to RRIRSRPPRLPRPRPRPEVFPRP, the “shrunken log2 fold change” value is 0.0779.
With RRIRDRPPRLPRPRPRPPFCPRP, the “shrunken log2 fold change” value worked out at 0.284.
Under RRIRARPPRLPRPRPRPADGPRP stands 0.258; under RRIRRRPPRLPRPRPRPPDNPRP, 0.548.
RRIRRRPPRLPRPRPRPQMSPRP: the “shrunken log2 fold change” value was determined as 0.0441.
For RRIRLRPPRLPRPRPRPRTYPRP, the “shrunken log2 fold change” value is -0.319.
For the sequence RRIRTRPPRLPRPRPRPKKKPRP, the “shrunken log2 fold change” value is -0.125.
With RRIRARPPRLPRPRPRPIWMPRP, the “shrunken log2 fold change” value is -0.00518.
As for RRIRLRPPRLPRPRPRPPNQPRP, the “shrunken log2 fold change” value amounted to 0.0881.
For the sequence RRIRMRPPRLPRPRPRPPMAPRP, the “shrunken log2 fold change” value was 0.841.
Consider RRIRSRPPRLPRPRPRPFGVPRP, for which the “shrunken log2 fold change” value was -0.448.
Regarding RRIRFRPPRLPRPRPRPSYYPRP, the “shrunken log2 fold change” value was -1.07.
On to RRIRQRPPRLPRPRPRPIKQPRP, for which the “shrunken log2 fold change” value is 0.00621.
As to RRIRWRPPRLPRPRPRPSIGPRP, the “shrunken log2 fold change” value was -0.175.
Regarding RRIRERPPRLPRPRPRPGMEPRP, the “shrunken log2 fold change” value amounted to 0.00479.
Consider RRIRSRPPRLPRPRPRPCILPRP, for which the “shrunken log2 fold change” value was -0.241.
Consider RRIRVRPPRLPRPRPRPKDLPRP, for which the “shrunken log2 fold change” value stood at 0.0892.
For RRIRLRPPRLPRPRPRPAARPRP, the “shrunken log2 fold change” value was determined as 0.453.
In the case of RRIRERPPRLPRPRPRPNNPPRP, the “shrunken log2 fold change” value was -0.736.
Turning to RRIRFRPPRLPRPRPRPLFQPRP, the “shrunken log2 fold change” value is -0.446.
As to RRIRQRPPRLPRPRPRPCGDPRP, the “shrunken log2 fold change” value is -0.0871.
RRIRKRPPRLPRPRPRPIPIPRP: the “shrunken log2 fold change” value turned out to be 0.136.
For RRIRHRPPRLPRPRPRPKKTPRP, the “shrunken log2 fold change” value was determined as 0.0065.
For RRIRNRPPRLPRPRPRPIDLPRP, the “shrunken log2 fold change” value was -0.0431.
Turning to RRIRVRPPRLPRPRPRPRIVPRP, the “shrunken log2 fold change” value was 0.166.
Consider RRIRGRPPRLPRPRPRPCARPRP, for which the “shrunken log2 fold change” value was 0.38.
The value for RRIRERPPRLPRPRPRPSWAPRP was -0.24; that for RRIRMRPPRLPRPRPRPRTAPRP was 1.29.
Regarding RRIRYRPPRLPRPRPRPYKEPRP, the “shrunken log2 fold change” value came to 0.043.
For RRIRRRPPRLPRPRPRPQLHPRP, the “shrunken log2 fold change” value is -0.00676.
Turning to RRIRGRPPRLPRPRPRPDQRPRP, the “shrunken log2 fold change” value was determined as 0.55.
In the case of RRIRWRPPRLPRPRPRPTGYPRP, the “shrunken log2 fold change” value is -0.145.
For RRIRGRPPRLPRPRPRPQWAPRP, the “shrunken log2 fold change” value was determined as 0.498.
Take RRIRCRPPRLPRPRPRPHPDPRP: the “shrunken log2 fold change” value is -0.0728.
As to RRIRVRPPRLPRPRPRPHCAPRP, the “shrunken log2 fold change” value is -0.179.
Regarding RRIRVRPPRLPRPRPRPKLLPRP, the “shrunken log2 fold change” value was -0.0409.
On to RRIRQRPPRLPRPRPRPDCNPRP, for which the “shrunken log2 fold change” value stood at 0.167.
Under RRIRVRPPRLPRPRPRPAKQPRP stands -0.0993.
The value for RRIRIRPPRLPRPRPRPQNFPRP was 0.0159; that for RRIRTRPPRLPRPRPRPPFHPRP was 0.535.
Under RRIRWRPPRLPRPRPRPTYVPRP stands 0.0417; under RRIRIRPPRLPRPRPRPCAYPRP, -0.0396; under RRIRWRPPRLPRPRPRPMKRPRP, 0.0121.
For the sequence RRIRRRPPRLPRPRPRPMLDPRP, the “shrunken log2 fold change” value stood at 0.116.
Under RRIRARPPRLPRPRPRPTPLPRP stands 0.601; under RRIRERPPRLPRPRPRPCIIPRP, -0.449; under RRIRGRPPRLPRPRPRPKCLPRP, -0.0243.
As for RRIRGRPPRLPRPRPRPCKAPRP, the “shrunken log2 fold change” value turned out to be 0.377.
For RRIRSRPPRLPRPRPRPEMNPRP, the “shrunken log2 fold change” value is 0.0588.
As for RRIRQRPPRLPRPRPRPFLAPRP, the “shrunken log2 fold change” value came to 0.286.
In the case of RRIRARPPRLPRPRPRPGRTPRP, the “shrunken log2 fold change” value came to 0.683.
As for RRIRKRPPRLPRPRPRPEIRPRP, the “shrunken log2 fold change” value amounted to 0.171.
For RRIRQRPPRLPRPRPRPYKPPRP, the “shrunken log2 fold change” value was 0.0291.
As for RRIRFRPPRLPRPRPRPFCAPRP, the “shrunken log2 fold change” value was -0.102.
For RRIRPRPPRLPRPRPRPDIVPRP, the “shrunken log2 fold change” value was -0.0822.
For RRIRERPPRLPRPRPRPMAHPRP, the “shrunken log2 fold change” value is -0.0343.
The value for RRIRHRPPRLPRPRPRPSAVPRP was -0.341; that for RRIRSRPPRLPRPRPRPGGKPRP was 0.0269.
Consider RRIRKRPPRLPRPRPRPKWKPRP, for which the “shrunken log2 fold change” value worked out at 0.479.
As to RRIRGRPPRLPRPRPRPIMRPRP, the “shrunken log2 fold change” value came out at 0.818.
As for RRIRWRPPRLPRPRPRPVNKPRP, the “shrunken log2 fold change” value is -0.0372.
For the sequence RRIRSRPPRLPRPRPRPCFVPRP, the “shrunken log2 fold change” value was -0.378.
Turning to RRIRTRPPRLPRPRPRPIFCPRP, the “shrunken log2 fold change” value was -0.327.
For RRIRKRPPRLPRPRPRPAAHPRP, the “shrunken log2 fold change” value came to 0.408.
